Where two headings read alike, the source gives them in different places.
Key:
Experiment in all cases: SEC-MALS
[1] = molecular target: Nup358-KLC2-fusion protein (human | mouse) (UniProt P49792)
[2] = molecular target: Nup358-min (residues 2147–2240 of human Nup358) (human) (UniProt P49792)
[3] = molecular target: Nup358/W2224A/D2225A-KLC2-fusion protein (human | mouse) (UniProt P49792)
[4] = molecular target: Nup358-KLC2-fusion protein (human | mouse) (UniProt P49792); remark: listed apart in the source

stoichiometry N [1]: 1
stoichiometry N [2]: 1
stoichiometry N [3]: 1
stoichiometry N [4]: 1
Substance: BicD2-CTD (residues 715–804 of human BicD2) (domain or fragment)

— paper PMC7243271
